Assay [1] addresses T. thermophilus Csm2 (T. thermophilus). The assay can be described thus: cryo-EM structure; TthCsm bound to a 50-nt complementary target RNA, with noncomplementary ssDNA and 1 mM EDTA; 3.8 Å.
For assay [2], the target named is T. thermophilus Csm3 (T. thermophilus). Described as above.

Take T. thermophilus Csm2 (natural protein): the stoichiometry N (as a rule, a count of units in the complex or per binding partner) in assay [1] turned out to be 4.

Take T. thermophilus Csm3 (natural protein): the stoichiometry N in assay [2] was determined as 6.

(Values after PMC6611850.)
